What was measured:
[1] = biological target: T1, acyl-ACP4(4) adduct 4a ((2S,3R)-diketide on ACP4(4)), Q03132
T1 chain: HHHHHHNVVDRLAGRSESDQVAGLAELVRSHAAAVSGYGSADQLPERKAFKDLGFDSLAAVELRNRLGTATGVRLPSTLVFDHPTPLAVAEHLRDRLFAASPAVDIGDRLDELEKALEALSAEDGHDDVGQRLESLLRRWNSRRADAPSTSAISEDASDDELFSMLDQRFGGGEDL

[2] = biological target: T2, acyl-ACP4(4) adduct 4b ((2R,3S)-diketide on ACP4(4)), Q03132
T2 chain: T1 chain

[3] = biological target: T3, acyl-ACP4(4) adduct 4d ((2R,3R)-diketide on ACP4(4)), Q03132
T3 chain: T1 chain

[4] = biological target: T4, acyl-ACP4(4) adduct 4c ((2S,3S)-diketide on ACP4(4)), Q03132
T4 chain: T1 chain

B1: (5)M2+TE (N-ERL-M2+TE; plasmid pRSG64) (protein)
chain: MSGDNGMTEEKLRRYLKRTVTELDSVTARLREVEHRAGEIAIVGMACRLPGEVDSPERLWELITSGRDSAAEVPDDRGWVPDELMASDAAGTRAHGNFMAGAGDFDAAFFGISPREALAMDPQQRQALETTWEALESAGIPPETLRGSDTGVFVGMSHQGYATGRPRPEDGVDGYLLTGNTASVASGRIAYVLGLEGPALTVDTACSSSLVALHTACGSLRDGDCGLAVAGGVSVMAGPEVFTEFSRQGALSPDGRCKPFSDEADGFGLGEGSAFVVLQRLSDARREGRRVLGVVAGSAVNQDGASNGLSAPSGVAQQRVIRRAWARAGITGADVAVVEAHGTGTRLGDPVEASALLATYGKSRGSSGPVLLGSVKSNIGHAQAAAGVAGVIKVLLGLERGVVPPMLCRGERSGLIDWSSGEIELADGVREWSPAADGVRRAGVSAFGVSGTNAHVIIAEPPEPEPVPQPRRMLPATGVVPVVLSARTGAALRAQAGRLADHLAAHPGIAPADVSWTMARARQHFEERAAVLAADTAEAVHRLRAVADGAVVPGVVTGSASDGGSVFVFPGQGAQWEGMARELLPVPVFAESIAECDAVLSEVAGFSVSEVLEPRPDAPSLERVDVVQPVLFAVMVSLARLWRACGAVPSAVIGHSQGEIAAAVVAGALSLEDGMRVVARRSRAVRAVAGRGSMLSVRGGRSDVEKLLADDSWTGRLEVAAVNGPDAVVVAGDAQAAREFLEYCEGVGIRARAIPVDYASHTAHVEPVRDELVQALAGITPRRAEVPFFSTLTGDFLDGTELDAGYWYRNLRHPVEFHSAVQALTDQGYATFIEVSPHPVLASSVQETLDDAESDAAVLGTLERDAGDADRFLTALADAHTRGVAVDWEAVLGRAGLVDLPGYPFQGKRFWLLPDRTTPRDELDGWFYRVDWTEVPRSEPAALRGRWLVVVPEGHEEDGWTVEVRSALAEAGAEPEVTRGVGGLVGDCAGVVSLLALEGDGAVQTLVLVRELDAEGIDAPLWTVTFGAVDAGSPVARPDQAKLWGLGQVASLERGPRWTGLVDLPHMPDPELRGRLTAVLAGSEDQVAVRADAVRARRLSPAHVTATSEYAVPGGTILVTGGTAGLGAEVARWLAGRGAEHLALVSRRGPDTEGVGDLTAELTRLGARVSVHACDVSSREPVRELVHGLIEQGDVVRGVVHAAGLPQQVAINDMDEAAFDEVVAAKAGGAVHLDELCSDAELFLLFSSGAGVWGSARQGAYAAGNAFLDAFARHRRGRGLPATSVAWGLWAAGGMTGDEEAVSFLRERGVRAMPVPRALAALDRVLASGETAVVVTDVDWPAFAESYTAARPRPLLDRIVTTAPSERAGEPETESLRDRLAGLPRAERTAELVRLVRTSTATVLGHDDPKAVRATTPFKELGFDSLAAVRLRNLLNAATGLRLPSTLVFDHPNASAVAGFLDICCAGTAAISGPHEFTRLAGALRGIAPVRAVPQPGYEEGEPLPSSMAAVAAVQADAVIRTQGDKPFVVAGHSAGALMAYALATELLDRGHPPRGVVLIDVYPPGHQDAMNAWLEELTATLFDRETVRMDDTRLTALGAYDRLTGQWRPRETGLPTLLVSAGEPMGPWPDDSWKPTWPFEHDTVAVPGDHFTMVQEHADAIARHIDAWHHHHHH
[1]
  diketide incorporation from acyl-ACP (triketide lactone formation): Both 4a and 4b were accepted and extended by all three modules
[2]
  diketide incorporation from acyl-ACP (triketide lactone formation): Both 4a and 4b were accepted and extended by all three modules
[3]
  diketide incorporation from acyl-ACP (triketide lactone formation): 4c and 4d were also substrates for the three modules
[4]
  diketide incorporation from acyl-ACP (triketide lactone formation): 4c and 4d were also substrates for the three modules

B2: (5)M3+TE (derivative of M3+TE where the natural N-terminal linker has been replaced with the N-terminal linker of module 5 of DEBS; plasmid pST132) (protein)
chain: MSGDNGMTEEKLRRYLKRTVTELDSVTARLREVEHRAGEPIAIVSMACRLPGGVNTPQRLWELLREGGETLSGFPTDRGWDLARLHHPDPDNPGTSYVDKGGFLDDAAGFDAEFFGVSPREAAAMDPQQRLLLETSWELVENAGIDPHSLRGTATGVFLGVAKFGYGEDTAAAEDVEGYSVTGVAPAVASGRISYTMGLEGPSISVDTACSSSLVALHLAVESLRKGESSMAVVGGAAVMATPGVFVDFSRQRALAADGRSKAFGAGADGFGFSEGVTLVLLERLSEARRNGHEVLAVVRGSALNQDGASNGLSAPSGPAQRRVIRQALESCGLEPGDVDAVEAHGTGTALGDPIEANALLDTYGRDRDADRPLWLGSVKSNIGHTQAAAGVTGLLKVVLALRNGELPATLHVEEPTPHVDWSSGGVALLAGNQPWRRGERTRRARVSAFGISGTNAHVIVEEAPEREHRETTAHDGRPVPLVVSARTTAALRAQAAQIAELLERPDADLAGVGLGLATTRARHEHRAAVVASTREEAVRGLREIAAGAATADAVVEGVTEVDGRNVVFLFPGQGSQWAGMGAELLSSSPVFAGKIRACDESMAPMQDWKVSDVLRQAPGAPGLDRVDVVQPVLFAVMVSLAELWRSYGVEPAAVVGHSQGEIAAAHVAGALTLEDAAKLVVGRSRLMRSLSGEGGMAAVALGEAAVRERLRPWQDRLSVAAVNGPRSVVVSGEPGALRAFSEDCAAEGIRVRDIDVDYASHSPQIERVREELLETTGDIAPRPARVTFHSTVESRSMDGTELDARYWYRNLRETVRFADAVTRLAESGYDAFIEVSPHPVVVQAVEEAVEEADGAEDAVVVGSLHRDGGDLSAFLRSMATAHVSGVDIRWDVALPGAAPFALPTYPFQRKRYWLQPAAPAAASDELAYRVSWTPIEKPESGNLDGDWLVVTPLISPEWTEMLCEAINANGGRALRCEVDTSASRTEMAQAVAQAGTGFRGVLSLLSSDESACRPGVPAGAVGLLTLVQALGDAGVDAPVWCLTQGAVRTPADDDLARPAQTTAHGFAQVAGLELPGRWGGVVDLPESVDDAALRLLVAVLRGGGRAEDHLAVRDGRLHGRRVVRASLPQSGSRSWTPHGTVLVTGAASPVGDQLVRWLADRGAERLVLAGACPGDDLLAAVEEAGASAVVCAQDAAALREALGDEPVTALVHAGTLTNFGSISEVAPEEFAETIAAKTALLAVLDEVLGDRAVEREVYCSSVAGIWGGAGMAAYAAGSAYLDALAEHHRARGRSCTSVAWTPWALPGGAVDDGYLRERGLRSLSADRAMRTWERVLAAGPVSVAVADVDWPVLSEGFAATRPTALFAELAGRGGQAEAEPDSGPTGEPAQRLAGLSPDEQQENLLELVANAVAEVLGHESAAEINVRRAFSELGLDSLNAMALRKRLSASTGLRLPASLVFDHPTVTALAQHLRARLDSGTPAREASSALRDGYRQAGVSGRVRSYLDLLAGLSDFREHFDGSDGFSLDLVDMADGPGEVTVICCAGTAAISGPHEFTRLAGALRGIAPVRAVPQPGYEEGEPLPSSMAAVAAVQADAVIRTQGDKPFVVAGHSAGALMAYALATELLDRGHPPRGVVLIDVYPPGHQDAMNAWLEELTATLFDRETVRMDDTRLTALGAYDRLTGQWRPRETGLPTLLVSAGEPMGPWPDDSWKPTWPFEHDTVAVPGDHFTMVQEHADAIARHIDAWLGGGNSHHHHHH
[1]
  diketide incorporation from acyl-ACP (product formation): all four acyl-ACP adducts were observed to be substrates for (5)M3+TE
[2]
  diketide incorporation from acyl-ACP (product formation): all four acyl-ACP adducts were observed to be substrates for (5)M3+TE
[3]
  diketide incorporation from acyl-ACP (product formation): all four acyl-ACP adducts were observed to be substrates for (5)M3+TE
[4]
  diketide incorporation from acyl-ACP (product formation): all four acyl-ACP adducts were observed to be substrates for (5)M3+TE

B3: M3+TE (module 3 of DEBS with its own N-terminal linker and with the thioesterase fused to the C-terminus; plasmid pRSG34) (protein)
chain: MTDSEKVAEYLRRATLDLRAARQRIRELESDIAIVSMACRLPGGVNTPQRLWELLREGGETLSGFPTDRGWDLARLHHPDPDNPGTSYVDKGGFLDDAAGFDAEFFGVSPREAAAMDPQQRLLLETSWELVENAGIDPHSLRGTATGVFLGVAKFGYGEDTAAAEDVEGYSVTGVAPAVASGRISYTMGLEGPSISVDTACSSSLVALHLAVESLRKGESSMAVVGGAAVMATPGVFVDFSRQRALAADGRSKAFGAGADGFGFSEGVTLVLLERLSEARRNGHEVLAVVRGSALNQDGASNGLSAPSGPAQRRVIRQALESCGLEPGDVDAVEAHGTGTALGDPIEANALLDTYGRDRDADRPLWLGSVKSNIGHTQAAAGVTGLLKVVLALRNGELPATLHVEEPTPHVDWSSGGVALLAGNQPWRRGERTRRARVSAFGISGTNAHVIVEEAPEREHRETTAHDGRPVPLVVSARTTAALRAQAAQIAELLERPDADLAGVGLGLATTRARHEHRAAVVASTREEAVRGLREIAAGAATADAVVEGVTEVDGRNVVFLFPGQGSQWAGMGAELLSSSPVFAGKIRACDESMAPMQDWKVSDVLRQAPGAPGLDRVDVVQPVLFAVMVSLAELWRSYGVEPAAVVGHSQGEIAAAHVAGALTLEDAAKLVVGRSRLMRSLSGEGGMAAVALGEAAVRERLRPWQDRLSVAAVNGPRSVVVSGEPGALRAFSEDCAAEGIRVRDIDVDYASHSPQIERVREELLETTGDIAPRPARVTFHSTVESRSMDGTELDARYWYRNLRETVRFADAVTRLAESGYDAFIEVSPHPVVVQAVEEAVEEADGAEDAVVVGSLHRDGGDLSAFLRSMATAHVSGVDIRWDVALPGAAPFALPTYPFQRKRYWLQPAAPAAASDELAYRVSWTPIEKPESGNLDGDWLVVTPLISPEWTEMLCEAINANGGRALRCEVDTSASRTEMAQAVAQAGTGFRGVLSLLSSDESACRPGVPAGAVGLLTLVQALGDAGVDAPVWCLTQGAVRTPADDDLARPAQTTAHGFAQVAGLELPGRWGGVVDLPESVDDAALRLLVAVLRGGGRAEDHLAVRDGRLHGRRVVRASLPQSGSRSWTPHGTVLVTGAASPVGDQLVRWLADRGAERLVLAGACPGDDLLAAVEEAGASAVVCAQDAAALREALGDEPVTALVHAGTLTNFGSISEVAPEEFAETIAAKTALLAVLDEVLGDRAVEREVYCSSVAGIWGGAGMAAYAAGSAYLDALAEHHRARGRSCTSVAWTPWALPGGAVDDGYLRERGLRSLSADRAMRTWERVLAAGPVSVAVADVDWPVLSEGFAATRPTALFAELAGRGGQAEAEPDSGPTGEPAQRLAGLSPDEQQENLLELVANAVAEVLGHESAAEINVRRAFSELGLDSLNAMALRKRLSASTGLRLPASLVFDHPTVTALAQHLRICCAGTAAISGPHEFTRLAGALRGIAPVRAVPQPGYEEGEPLPSSMAAVAAVQADAVIRTQGDKPFVVAGHSAGALMAYALATELLDRGHPPRGVVLIDVYPPGHQDAMNAWLEELTATLFDRETVRMDDTRLTALGAYDRLTGQWRPRETGLPTLLVSAGEPMGPWPDDSWKPTWPFEHDTVAVPGDHFTMVQEHADAIARHIDAWHHHHHH
[1]
  diketide incorporation from acyl-ACP (product formation): no product formation was observed from the incubation of any of the acyl-ACP adducts with (3)M3+TE
[2]
  diketide incorporation from acyl-ACP (product formation): no product formation was observed from the incubation of any of the acyl-ACP adducts with (3)M3+TE
[3]
  diketide incorporation from acyl-ACP (product formation): no product formation was observed from the incubation of any of the acyl-ACP adducts with (3)M3+TE
[4]
  diketide incorporation from acyl-ACP (product formation): no product formation was observed from the incubation of any of the acyl-ACP adducts with (3)M3+TE

Reference: patent US7001748
